The values below come from PMC314469, “Protein Interaction Networks by Proteome Peptide Scanning” (PLoS Biology, 2004).

T1: Abp1 SH3 (ABP1_YEAST), P15891
T1 chain: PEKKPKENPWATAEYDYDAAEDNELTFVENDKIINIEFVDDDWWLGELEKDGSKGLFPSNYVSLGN

For the assay, the target named is T1, Abp1 SH3 (ABP1_YEAST), P15891. Put plainly: SPOT array.
IGNDRASPTNKKP [YGR097W 338-350]: the normalised SPOT signal, Boehringer light units (BLU); mean over the file's lines of this peptide came to 420.

IKMASFLPVPEKP [YNL206C 123-135] yielded a normalised SPOT signal, Boehringer light units (BLU); mean over the file's lines of this peptide of 370.

The molecule HVPIVKRNKYPPRP [YDR195W 518-531] showed a normalised SPOT signal, Boehringer light units (BLU); mean over the file's lines of this peptide of 267.

The molecule IILENFIVEVPDKP [YKL005C 358-371] returned a normalised SPOT signal, Boehringer light units (BLU); mean over the file's lines of this peptide of 57.8.

Molecule HVNLDKGKHVPSKP [YKL054C 142-155] gave a normalised SPOT signal, Boehringer light units (BLU); mean over the file's lines of this peptide of 105.

With IEKTKDILSIPPKP [YOR219C 489-502], the normalised SPOT signal, Boehringer light units (BLU); mean over the file's lines of this peptide turned out to be 63.2.

On to HVDEDGEPIDIKP [YLR429W 120-132], for which the normalised SPOT signal, Boehringer light units (BLU); mean over the file's lines of this peptide was determined as 202.

HTEQNNPPKPQKP [YOR290C 412-424] displayed a normalised SPOT signal, Boehringer light units (BLU); mean over the file's lines of this peptide of 129.

IIDSVKVPDSYKP [YDR058C 11-23] showed a normalised SPOT signal, Boehringer light units (BLU); mean over the file's lines of this peptide of 67.7.

Consider IGLFGKDLSKPGRP [YBR243C 53-66], for which the normalised SPOT signal, Boehringer light units (BLU); mean over the file's lines of this peptide is 150.

Take HLSLTAVPSFLRP [YJR090C 735-747]: the normalised SPOT signal, Boehringer light units (BLU); mean over the file's lines of this peptide came out at 62.7.

The molecule HPEYTSKVLEPSRP [YJR103W 537-550] gave a normalised SPOT signal, Boehringer light units (BLU); mean over the file's lines of this peptide of 91.6.

Turning to IFLNRKKPALFRP [YNL230C 281-293], the normalised SPOT signal, Boehringer light units (BLU); mean over the file's lines of this peptide came to 2850.

IFPPIDDPLPFKP [YDR284C 246-258] returned a normalised SPOT signal, Boehringer light units (BLU); mean over the file's lines of this peptide of 62.

Take IHLTDKGFKMPKKP [YOR243C 79-92]: the normalised SPOT signal, Boehringer light units (BLU); mean over the file's lines of this peptide was 508.

Turning to IAVGLDALNIPHKP [YHR033W 54-67], the normalised SPOT signal, Boehringer light units (BLU); mean over the file's lines of this peptide stood at 142.

Take HYAKNRTPGVMKP [YLR244C 308-320]: the normalised SPOT signal, Boehringer light units (BLU); mean over the file's lines of this peptide was found to be 419.

Take HLYSMDPPLDRKP [YGL131C 343-355]: the normalised SPOT signal, Boehringer light units (BLU); mean over the file's lines of this peptide turned out to be 172.

As to IAVISVLPNFKKP [YBL004W 947-959], the normalised SPOT signal, Boehringer light units (BLU); mean over the file's lines of this peptide came to 29.

For the molecule IKKSVSSPKVSKP [YLR453C 47-59], the normalised SPOT signal, Boehringer light units (BLU); mean over the file's lines of this peptide is 114.

On to IESLTTIMRIPSKP [YBR250W 264-277], for which the normalised SPOT signal, Boehringer light units (BLU); mean over the file's lines of this peptide was 204.

Consider IGRNIVKVVYPDKP [YJL025W 348-361], for which the normalised SPOT signal, Boehringer light units (BLU); mean over the file's lines of this peptide worked out at 105.

For HYDVDANIMPPPKP [YBR108W 510-523], the normalised SPOT signal, Boehringer light units (BLU); mean over the file's lines of this peptide is 108.

For the molecule HNTSSSIPKISRP [YGR014W 1282-1294], the normalised SPOT signal, Boehringer light units (BLU); mean over the file's lines of this peptide amounted to 765.

Molecule IDIPVRQPYSKKP [YDR422C 269-281] yielded a normalised SPOT signal, Boehringer light units (BLU); mean over the file's lines of this peptide of 639.

Consider IIPIAKTPLNARP [YJR001W 478-490], for which the normalised SPOT signal, Boehringer light units (BLU); mean over the file's lines of this peptide turned out to be 74.7.

Regarding HLNNSDIHSQPNKP [YOR329C 803-816], the normalised SPOT signal, Boehringer light units (BLU); mean over the file's lines of this peptide stood at 87.4.

On to IIHTDDLPEGIRP [YLR090W 426-438], for which the normalised SPOT signal, Boehringer light units (BLU); mean over the file's lines of this peptide is 125.

With HLFPPSSPVAGKP [YDR501W 3-15], the normalised SPOT signal, Boehringer light units (BLU); mean over the file's lines of this peptide is 69.7.

On to IERQRLSMVTPSKP [YCL063W 140-153], for which the normalised SPOT signal, Boehringer light units (BLU); mean over the file's lines of this peptide was determined as 2630.

Molecule IGSFITINIVPWRP [YLR101C 109-122] returned a normalised SPOT signal, Boehringer light units (BLU); mean over the file's lines of this peptide of 21.1.

As to IDFFLALFSDPARP [YHL005C 58-71], the normalised SPOT signal, Boehringer light units (BLU); mean over the file's lines of this peptide was determined as 21.9.

For IKEEERLQSQPPRP [YGR268C 17-30], the normalised SPOT signal, Boehringer light units (BLU); mean over the file's lines of this peptide is 137.

In turn, IDRIPPPTGRPDKP [YLR289W 221-234] returned a normalised SPOT signal, Boehringer light units (BLU); mean over the file's lines of this peptide of 118.

In turn, HPEYTSKVLDPSKP [YBL039C 535-548] registered a normalised SPOT signal, Boehringer light units (BLU); mean over the file's lines of this peptide of 69.3.

IDILGLAELAPGKP [YLR304C 721-734] yielded a normalised SPOT signal, Boehringer light units (BLU); mean over the file's lines of this peptide of 124.

For the molecule IAHFNYLPPTIRP [YKR099W 624-636], the normalised SPOT signal, Boehringer light units (BLU); mean over the file's lines of this peptide amounted to 197.

Take IDLVKHSPGAIKP [YHL030W 1303-1315]: the normalised SPOT signal, Boehringer light units (BLU); mean over the file's lines of this peptide is 84.8.

In the case of IIEKGPVPENLKP [YLR069C 260-272], the normalised SPOT signal, Boehringer light units (BLU); mean over the file's lines of this peptide came to 100.

HMTHNRKPAEPTKP [YML075C 1020-1033] had a normalised SPOT signal, Boehringer light units (BLU); mean over the file's lines of this peptide of 2090.

Regarding IFYSLIYPYLIKP [YIL067C 132-144], the normalised SPOT signal, Boehringer light units (BLU); mean over the file's lines of this peptide came out at 90.9.

HSAATALPALRRP [YLR162W 19-31] registered a normalised SPOT signal, Boehringer light units (BLU); mean over the file's lines of this peptide of 80.8.

For IHYKKNIEISPLKP [YML053C 112-125], the normalised SPOT signal, Boehringer light units (BLU); mean over the file's lines of this peptide is 82.1.

On to HLIAPLAGAVPTKP [YLR153C 435-448], for which the normalised SPOT signal, Boehringer light units (BLU); mean over the file's lines of this peptide was determined as 131.

IATSADYIFIPEKP [YMR205C 403-416]: the normalised SPOT signal, Boehringer light units (BLU); mean over the file's lines of this peptide is 90.5.

HTDDLPEGIRPFKP [YLR090W 428-441] showed a normalised SPOT signal, Boehringer light units (BLU); mean over the file's lines of this peptide of 61.

Take HYPPGYDPTDPNRP [YER166W 1422-1435]: the normalised SPOT signal, Boehringer light units (BLU); mean over the file's lines of this peptide amounted to 176.

In turn, IEFKDVSFSYPTRP [YPL270W 493-506] registered a normalised SPOT signal, Boehringer light units (BLU); mean over the file's lines of this peptide of 89.

In the case of HSAIQSLSFHPSKP [YJL069C 248-261], the normalised SPOT signal, Boehringer light units (BLU); mean over the file's lines of this peptide is 194.

Consider IHTSPHQPSDVKP [YDR227W 60-72], for which the normalised SPOT signal, Boehringer light units (BLU); mean over the file's lines of this peptide worked out at 121.

In the case of IITDTTRPSNNRP [YOR368W 277-289], the normalised SPOT signal, Boehringer light units (BLU); mean over the file's lines of this peptide is 126.

In turn, IAIEREEDSIPSRP [YMR221C 251-264] displayed a normalised SPOT signal, Boehringer light units (BLU); mean over the file's lines of this peptide of 99.1.

The molecule IFLNYEWPQWLRP [YOR336W 1160-1172] showed a normalised SPOT signal, Boehringer light units (BLU); mean over the file's lines of this peptide of 163.

As to HTMTSPPPVFNKP [YDL195W 1091-1103], the normalised SPOT signal, Boehringer light units (BLU); mean over the file's lines of this peptide was 1200.
